The record followed here is the supplement of paper PMC5998384.

For series [1], the system named is HeLa Kyoto. As to the kind of experiment: solubility in G1/S (NP-40 vs SDS abundance) (log2 ratio); higher = more soluble. The following applies: cell cycle stage: G1/S.
The test system of series [2] is HeLa Kyoto. The series can be described thus: melting temperature (median over replicates), in situ; higher = more thermally stable.
Series [3] concerns HeLa Kyoto. The series can be described thus: thermal stability score vs G1/S (z-score of summed log2 fold changes over temperatures); higher = more thermally stable than in G1/S.
Series [4] deals with HeLa Kyoto. The series can be described thus: solubility change mitosis vs G1/S (difference of NP-40 vs SDS log2 ratios) (log2 ratio difference); higher = more soluble in mitosis.
Where [5] appears, read: cell cycle stage: early G1 (4.5 h after nocodazole release).
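For melting temperature (median over replicates), in situ in this document: HeLa Kyoto cells synchronized by double thymidine or nocodazole block, proteins quantified by TMT10plex mass spectrometry, three independent biological replicates.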
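For solubility change mitosis vs G1/S (difference of NP-40 vs SDS log2 ratios) in this document: synchronized HeLa Kyoto cells (double thymidine block for G1/S, nocodazole release for mitosis), protein amounts in NP-40 versus SDS lysates quantified by mass spectrometry, three biological replicates.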
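For solubility in G1/S (NP-40 vs SDS abundance) in this document: HeLa Kyoto cells arrested at G1/S by double thymidine block, proteins quantified by TMT10plex mass spectrometry in mild NP-40 versus SDS extracts, three biological replicates.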
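For thermal stability score vs G1/S (z-score of summed log2 fold changes over temperatures) in this document: synchronized HeLa Kyoto cells, proteins quantified by TMT10plex mass spectrometry, three biological replicates, mitosis taken 0.5 h after nocodazole release, G1/S directly after double thymidine block.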

Consider “MVAPGSVTSRLGSVFPFLLVLVDLQYEGAECGVNADVEKHLELGKKLLAAGQLADALSQFHAAVDGDPDNYIAYYRRATVFLAMGKSKAALPDLTKVIQLKMDFTAARLQRGHLLLKQGKLDEAEDDFKKVLKSNPSENEEKEAQSQLIKSDEMQRLRSQALNAFGSGDYTAAIAFLDKILEVCVWDAELRELRAECFIKEGEPRKAISDLKAASKLKNDNTEAFYKISTLYYQLGDHELSLSEVRECLKLDQDHKRCFAHYKQVKKLNKLIESAEELIRDGRYTDATSKYESVMKTEPSIAEYTVRSKERICHCFSKDEKPVEAIRVCSEVLQMEPDNVNALKDRAEAYLIEEMYDEAIQDYETAQEHNENDQQIREGLEKAQRLLKQSQKRDYYKILGVKRNAKKQEIIKAYRKLALQWHPDNFQNEEEKKKAEKKFIDIAAAKEVLSDPEMRKKFDDGEDPLDAESQQGGGGNPFHRSWNSWQGFNPFSSGGPFRFKFHFN [DNAJC3]”, for which, in the series on HeLa Kyoto [1], the “solubility in G1/S (log2)” value stood at 0.202. Further, the melting temperature in the series with HeLa Kyoto [2] (cell cycle stage: G1/S) is 53.3 °C; in the series with HeLa Kyoto [2] (cell cycle stage: mitosis) it was 54.4 °C. For the same sequence, the results for the thermal stability score in the series with HeLa Kyoto [3] (setting [5]) and with HeLa Kyoto [3] (cell cycle stage: mitosis) were 5 and 3.84, respectively. In addition, in the series with HeLa Kyoto [4], the “solubility change mitosis (log2)” value is -0.0724.
As for “MVGSLNCIVAVSQNMGIGKNGDLPWPPLRNEFRYFQRMTTTSSVEGKQNLVIMGKKTWFSIPEKNRPLKGRINLVLSRELKEPPQGAHFLSRSLDDALKLTEQPELANKVDMVWIVGGSSVYKEAMNHPGHLKLFVTRIMQDFESDTFFPEIDLEKYKLLPEYPGVLSDVQEEKGIKYKFEVYEKND [DHFR]”, the “solubility in G1/S (log2)” value with HeLa Kyoto [1] was found to be 0.294. Moreover, the results for the melting temperature in the series with HeLa Kyoto [2] (cell cycle stage: G1/S) and in the series with HeLa Kyoto [2] (cell cycle stage: mitosis) were 47.9 °C and 49.1 °C, respectively. The thermal stability score worked out at 1.37 in the series on HeLa Kyoto [3] (setting [5]) and 2.73 with HeLa Kyoto [3] (cell cycle stage: mitosis). In addition, the “solubility change mitosis (log2)” value in the series with HeLa Kyoto [4] is -0.139.
As for “MKIKDAKKPSFPWFGMDIGGTLVKLSYFEPIDITAEEEQEEVESLKSIRKYLTSNVAYGSTGIRDVHLELKDLTLFGRRGNLHFIRFPTQDLPTFIQMGRDKNFSTLQTVLCATGGGAYKFEKDFRTIGNLHLHKLDELDCLVKGLLYIDSVSFNGQAECYYFANASEPERCQKMPFNLDDPYPLLVVNIGSGVSILAVHSKDNYKRVTGTSLGGGTFLGLCSLLTGCESFEEALEMASKGDSTQADKLVRDIYGGDYERFGLPGWAVASSFGNMIYKEKRESVSKEDLARATLVTITNNIGSVARMCAVNEKINRVVFVGNFLRVNTLSMKLLAYALDYWSKGQLKALFLEHEGYFGAVGALLGLPNFS [PANK3]”, the “solubility in G1/S (log2)” value with HeLa Kyoto [1] was -0.124. Moreover, the results for the melting temperature in the series with HeLa Kyoto [2] (cell cycle stage: G1/S) and with HeLa Kyoto [2] (cell cycle stage: mitosis) were 53.4 °C and 53.9 °C, respectively. In addition, the thermal stability score with HeLa Kyoto [3] (setting [5]) was -1.56; in the series on HeLa Kyoto [3] (cell cycle stage: mitosis) it was -0.972. Also, the “solubility change mitosis (log2)” value in the series with HeLa Kyoto [4] is -0.137.
As to “MAVTITLKTLQQQTFKIRMEPDETVKVLKEKIEAEKGRDAFPVAGQKLIYAGKILSDDVPIRDYRIDEKNFVVVMVTKTKAGQGTSAPPEASPTAAPESSTSFPPAPTSGMSHPPPAAREDKSPSEESAPTTSPESVSGSVPSSGSSGREEDAASTLVTGSEYETMLTEIMSMGYERERVVAALRASYNNPHRAVEYLLTGIPGSPEPEHGSVQESQVSEQPATEAAGENPLEFLRDQPQFQNMRQVIQQNPALLPALLQQLGQENPQLLQQISRHQEQFIQMLNEPPGELADISDVEGEVGAIGEEAPQMNYIQVTPQEKEAIERLKALGFPESLVIQAYFACEKNENLAANFLLSQNFDDE [RAD23A]”, in the series on HeLa Kyoto [1], the “solubility in G1/S (log2)” value turned out to be 0.0728. Also, the melting temperature turned out to be 56.3 °C in the series on HeLa Kyoto [2] (cell cycle stage: G1/S) and 55.5 °C in the series with HeLa Kyoto [2] (cell cycle stage: mitosis). For the same sequence, the figures for the thermal stability score in the series on HeLa Kyoto [3] (setting [5]) and in the series with HeLa Kyoto [3] (cell cycle stage: mitosis) were -1.83 and -1.48, respectively. For the same sequence, in the series with HeLa Kyoto [4], the “solubility change mitosis (log2)” value amounted to 0.0994.
Take “MLSQVYRCGFQPFNQHLLPWVKCTTVFRSHCIQPSVIRHVRSWSNIPFITVPLSRTHGKSFAHRSELKHAKRIVVKLGSAVVTRGDECGLALGRLASIVEQVSVLQNQGREMMLVTSGAVAFGKQRLRHEILLSQSVRQALHSGQNQLKEMAIPVLEARACAAAGQSGLMALYEAMFTQYSICAAQILVTNLDFHDEQKRRNLNGTLHELLRMNIVPIVNTNDAVVPPAEPNSDLQGVNVISVKDNDSLAARLAVEMKTDLLIVLSDVEGLFDSPPGSDDAKLIDIFYPGDQQSVTFGTKSRVGMGGMEAKVKAALWALQGGTSVVIANGTHPKVSGHVITDIVEGKKVGTFFSEVKPAGPTVEQQGEMARSGGRMLATLEPEQRAEIIHHLADLLTDQRDEILLANKKDLEEAEGRLAAPLLKRLSLSTSKLNSLAIGLRQIAASSQDSVGRVLRRTRIAKNLELEQVTVPIGVLLVIFESRPDCLPQVAALAIASGNGLLLKGGKEAAHSNRILHLLTQEALSIHGVKEAVQLVNTREEVEDLCRLDKMIDLIIPRGSSQLVRDIQKAAKGIPVMGHSEGICHMYVDSEASVDKVTRLVRDSKCEYPAACNALETLLIHRDLLRTPLFDQIIDMLRVEQVKIHAGPKFASYLTFSPSEVKSLRTEYGDLELCIEVVDNVQDAIDHIHKYGSSHTDVIVTEDENTAEFFLQHVDSACVFWNASTRFSDGYRFGLGAEVGISTSRIHARGPVGLEGLLTTKWLLRGKDHVVSDFSEHGSLKYLHENLPIPQRNTN [ALDH18A1]”: in the series with HeLa Kyoto [1], the “solubility in G1/S (log2)” value is -0.0382. Besides, the melting temperature was 52.5 °C with HeLa Kyoto [2] (cell cycle stage: G1/S) and 52.1 °C in the series on HeLa Kyoto [2] (cell cycle stage: mitosis). The thermal stability score in the series with HeLa Kyoto [3] (setting [5]) is -0.326; in the series with HeLa Kyoto [3] (cell cycle stage: mitosis), -2.31. Moreover, the “solubility change mitosis (log2)” value in the series with HeLa Kyoto [4] is -0.0142.
